As usually defined, the Kd is the free concentration of one partner at which half of the binding sites on the other are occupied at equilibrium, for simple one-to-one binding.

We go through 1 substance from PMC5720831.

The experiment concerns the target biotinylated Mtb DnaB (Mycobacterium tuberculosis). In words: BLI; Octet RED96; 200 nM biotinylated DnaB loaded on streptavidin biosensors, DciAMtb in solution at varying concentrations, 300 s association and 300 s dissociation; 150 mM NaCl, 0.02% Tween-20, 0.1% BSA, 10 mM NaPO4 pH 8; double reference subtracted; global fit, 1:1 kinetic binding model. On the technique in general: Biolayer interferometry detects binding as a change in optical thickness at a sensor tip.

The substance “DciAMtb, purified recombinant, untagged (from UniProt P9WFL1 1-187) (natural protein)” registered a Kd of 211 nM.
